Assay results: paper PMC7870876

Target: Synaptophysin (rat (endogenous in rat brain synaptic vesicles)), P07825
Experiment: cross-linking; BS3 cross-linked synaptic vesicle proteins, gel electrophoresis, western blot with antibodies against Synaptobrevin-2 and Synaptophysin
Conditions: remark: other sources report otherwise

B1: Synaptophysin, P07825 1-307 (natural protein)
chain: MDVVNQLVAGGQFRVVKEPLGFVKVLQWVFAIFAFATCGSYTGELRLSVECANKTESALNIEVEFEYPFRLHQVYFDAPSCVKGGTTKIFLVGDYSSSAEFFVTVAVFAFLYSMGALATYIFLQNKYRENNKGPMMDFLATAVFAFMWLVSSSAWAKGLSDVKMATDPENIIKEMPMCRQTGNTCKELRDPVTSGLNTSVVFGFLNLVLWVGNLWFVFKETGWAAPFMRAPPGAPEKQPAPGDAYGDAGYGQGPGGYGPQDSYGPQGGYQPDYGQPASGGGGYGPQGDYGQQGYGQQGAPTSFSNQM
Question: How did the stoichiometry N turn out when B1 was run?
Answer: Its stoichiometry N is 2.
